The values below come from a protein production outcome set (Wang et al. 2014).

A short description of this data set: label from the status in PepcDB records.

On to “MIIKGRAHKFGDDVDTDAIIPGPYLRTTDPYELASHCMAGIDENFPKKVKEGDVIVAGENFGCGSSREQAVIAIKYCGIKAVIAKSFARIFYRNAINVGLIPIIANTDEIKDGDIVEIDLDKEEIVITNKNKTIKCETPKGLEREILAAGGLVNYLKKRKLIQSKKGVKT”, for which the protein production entry is on record as “not failed”.
“MIILKGNKIDYLFLLFGLLGLSTMIYSYLSFSLDVISRNSCTINSVISCSSVENSIYSTFLGIKLYYYGMAYFSAIIVLSLLVVKGTVKNIIGYVISLLSIIASIISVYLIYTEIFLLGHMCIVCTLAHVSIFSVLILSVIKFKV”: the protein production entry is “failed”.
Turning to “MIINITILEDNESDFITLSDSIKKWAANTGILINIIWLNSYKKFIKSLPTLKCDLFFSDIELNCNNSFTGIDACKQLRESGYTGIIIFLTAFKEYVFDGYDVQAFNYLLKPINYGTINNCLDKFIHLFSREFYYYHKGNDIISIPYNDIMYIEKNGHDVILHTTSNVFVERISLNEISKRLPVFFIRAHKSYIVNINKVLSLRINELFLPNNVTIPVSRSYLTNIKKKLLEIAR”, the protein production entry was “failed”.
Take “MIIPTVPTTDELLDKGFRRARKAASLKRSSKIPGQKKAKVIESTRVQTACQVIRDRLKMIIQRIPDIESLPEFYQDYIDVTVGVDELKKSLGALNWAVGILNQLESDYMARIKRSKPSDASHLRREAFGRISSVIKRIEGDLDFLDFAKNKLRNMPTVDLDAFTVVIAGFPNVGKSTLLRTLTGAEPEVADYPFTTKGIQIGHLERKWKRIQVIDTPGLLDRPVEDMNNIELQAMVALENIADVIMFIFDASETCGYTLESQYSLYLGIRSVFDIPVVTVFNKMDLAENVKYLEEYINMVEDPLKVSAFEGRGVSKIIKKLEGLYEKETREAHDNV”: the protein production result was “failed”.
On to “MIIPVRRFTPNAYIMRILVSIIVFLCIGWIGRVTELEENFITQNKPVEVGTFVTFTINIPDGSEIPYVAWDFGDGSGLGRYRKSLSVSYTFTEPGVYQVYARIQGEDFPLTVIQTVYKPTQKPAPAHSSTIVIDTVHQKVWAVNTDNNSVAYIDALNNTLLSEIPVGKQPRTVALDKDGNAWVANEEDASISVIAAATGQVLQTIILPYASRPYGICFDPQKDFCYVTLQGTGELVKIEAIGREIVESVHVGRSPRGIAVTSDGSQMLVTQFISPEENGLVRLIDTKTMHVQQEIVLAFDVTPDFEDRGRGVPNFLSSITITPDGTEAWVPSKKDNTARGMFRDGLALEFDNTVRTIVSRIDLSTMTENSQMRTDINDADMACAVEFSPYGNIAFVALQGVNKITMIDVASNSRLGLLDSTGLAPQGLVINADGSRLFVHNFLTRTVKVFNTEDIVLSNNFTPVVAATISTIITEKLAPQVLEGKQIFYNAADERMTFAGYISCASCHLDGASDERVWDFTDRGEGFRNTHSLLGRGGMDMGNVHWTSNFDEIQDFENDMRNGFKGKGFLPDAVFALVSDPLGNPKAGLSRELDALAAYVTSLNKVHASPYRNNDGSLTADGIEGEILFQELGCGSCHAGQDFTDRKTGVLHDVGTEQPSSGERRTLALTGFGTPTLKGIWETAPYLHDGSALTLKDVLVTRNAEKKHGDLSNLTETELDKLVAYLLQIDDNQDAVITALLFPIKREFVAMRIFPNPASESANVQLTNIVKSSGTIRIYNVIGHLLMTVLVEGMNEINLDVSQLNSGVYVVEYSDDTSKYSQKMVIQ”, for which the protein production result is “failed”.
As for “MIIRIVQNIQRINKEGNAPLYISFYLGKEKVVIPCKLSVPTTKFDSKTGMLRGTNKEAKDINLIIERLKAKVNDILVKHRLKNLTLNKEAFMREYNNPSDFKSFHDFVASYMKTYSRRLEIGTFRHHKSCMRKFKEYCEGLQFHELTEDFLRDYLIYMKKTLCNADSTAQRNLSTIKIYVSAAIKKGYMENDPFKDFGVKRIKSNIDYLTEEELIKFISLYYDRRLPERLERTLGFFLFMCFTSLHISDARHVCLEQINNGILTYYRIKNRNCKPEAIKIPLSIPAFKIIEELQGKRKEGHLFTSLQCDQVVNRQIKEIASILEIKKKVSAKTGRHTFATIFLKKTKDVATLQKLLGHSNLKETMIYAHVLDESKQEGMQCFNSFAI”, the protein production result is recorded as “failed”.
As to “MIKAILIFNNHGKPRLCKFYQHYSEDTQQQIIRETFHLVSKRDENVCNFLEGGLLIGGSDNKLIYRHYATLYFVFCVDSSESELGILDLIQVFVETLDKCFENVCELDLIFHVDKVHNILAEMVMGGMVLETNMNEIVTQIDA”, the protein production entry is “not failed”.
As for “MIKGFRLWILIVSLGLSFSFLGYQWLTRYNFNTDHQVGDVIDSLNGVEIYYNGGVNTNEGRNLSLDGYNLGIKYQCVEFVKRYFYQRYQHQMPDSFGHARDFFDNLLTDGSWNEKRALRQFTNGSQSKPMADDLLVFAPWILNPYGHVAIIAAVTDKGIEIAQQNPGPFAPSREYFPLIQRDGLWYIDAPRAKGWLRWEATSPNVATENSGFIDPVMVIKELEHHHHHH”, the entry is “not failed”; as for “MIKIAIVGFGTVGQGVAELLIRKREEIEKAIGEFKVTAVADSKSSISGDFSLVEALRMKRETGMLRDDAKAIEVVRSADYDVLIEASVTRVDGGEGVNYIREALKRGKHVVTSNKGPLVAEFHGLMSLAERNGVRLMYEATVGGAMPVVKLAKRYLALCEIESVKGIFNGTCNYILSRMEEERLPYEHILKEAQELGYAEADPSYDVEGIDAALKLVIIANTIGVKASYEDVEVTGITQITPEAFQVAAEKGYTIRLIAEVSREKLKVSPRLVPFHHPLAIKGTMNAAMFKTDTAGSIFVAGRGAGKEETASAILSDLYEIYAGPR”, “failed”; as for “MIKISVIIPIYNAENYIEKAFSSLKNQTLAQNEFEILCIDDKSTDNSLGKLKQLSKIHKNMRIINLHKNSGGPMIPRNKGIKEAKGKYIIFLDNDDYLGEEALERLFIQAEKNQSEVIFGKYVGINGRGVPQSQFKKGNRNEADILADNLVYTLAPHKMFQTAFLKTKKIYFDPNILIGEDQYFVMKAYVNAKVITVLADYDYYYVVSRGDENLSIKESKMDPREICKVVPAVVKEIEASPLHPTYKKTLIRAYIQRYFNDYITGNYNLDYKNMSERQKTFVQVMKDTIVCHLDEKMKNELPTKTRFMIDIIAENNPEKLIDVRMQMENFSKNQVVKVENGYIKGRFRKMRPQLAYDDVYDINHLNSSKVQLHSVTLQNNNYLLDISLEQSLLTRFQTALRLCLKERDGNLEIWISPLKMLSTERGIYAVDSTLFNHTCIWDLFIESEINGFKNRKRVGKDRDFEEIVSSNNTPLLIQNNSYQIKAYFTTPFSNLSFQIISE”, “failed”.
As to “MIKKIFALPVIEQISPVLSRRKLDELDLIVVDHPQVKASFALQGAHLLSWKPAGEEEVLWLSNNTPFKNGVAIRGGVPVCWPWFGPAAQQGLPAHGFARNLPWTLKSHHEDADGVALTFELTQSEETKKFWPHDFTLLAHFRVGKTCEIDLESHGEFETTSALHTYFNVGDIAKVSVSGLGDRFIDKVNDAKENVLTDGIQTFPDRTDRVYLNPQDCSVINDEALNRIIAVGHQHHLNVVGWNPGPALSISMGDMPDDGYKTFVCVETAYASETQKVTKEKPAHLAQSIRVAKR”, the protein production entry is given as “not failed”.
With “MIKKTIGGIIPIFTAVFIPASAGAADLMLAQEYKGQDIAGWAMSEKLDGVRAYWDGKHLMSRQGYAFAPPKGFTAQFPPYPLDGELYSGRGQFEQISATVRSVSSDWRGIRLHVFDVPKAQGNLYQRLAVATQWLKTHPNAPITIIPQIKVRDRQHAMDFLKQIEAQGGEGVMLRQPESRYSGGRSSQLLKLKSQYDDECTVTRHYEGKGRNAGRLGAVGCKNRHGEFRIGSGFKDKDRDNPPKIGTLITYRYRGFTRKGTPKFATFVRVRTDR”, the protein production entry was “failed”.
Turning to “MIKLIKNEIIKMLFKKKVILIMAIILIEACAFAYGQNNKYQRTVRSYVNSNSSSYNWRPLINQQIQDLQSKLKYRTVKKSEEKSINIQMEQYRYYLKNNINPITPTAGNFTSNIMAQSVTLLLPLLVIILASDIVSSEFSSRTIKVLLTRAVPRWKILLSKYIALIIMSAFVVFLTTIIPLIVSLVVFKRTGFGEPVITGYKVIAGKVDASNVVGIYQWYYILIMSALSFFISIVVGSISFMISIFVKSIGASIGIMMSALIGGNILSVFLDDIEAAKYFFVVNLNLPQYLTGKMRIVSGMNFDFSIMVLLIWSMASIVISFYVFNKKDVLV”, the protein production entry is on record as “failed”.
